Data taken from paper PMC8211825, “Molecular mechanism of calcium induced trimerization of C1q-like domain of otolin-1 from human and zebrafish” (Scientific Reports, 2021).
Substitutions are numbered along the chain they refer to. In names and notes the source's numbering stands. Several values for one entry are separate records, joined by “and”; a condition that tells them apart may be missing. Identical values can stand only once.

B1: C1q-like domain of otolin-1 from human (domain or fragment, UniProt A6NHN0 338-473, looked up)
chain: ARVPRSAFSAGLSKPFPPPNIPIKFEKILYNDQGNYSPVTGKFNCSIPGTYVFSYHITVRGRPARISLVAQNKKQFKSRETLYGQEIDQASLLVILKLSAGDQVWLEVSKDWNGVYVSAEDDSIFTGFLLYPEETS
notes: gC1q (C1q-like) domain of human otolin-1, UniProt A6NHN0; printed monomer MW 17.0 kDa; Subcloned in pQE-80 L; The tag is known only from TALON purification and a 6xHis Western blot; also called hOtolC1q; native hOtolC1q
B2: hOtolC1q E470A (domain or fragment, human, UniProt A6NHN0 338-473, looked up)
chain: B1 chain with E133A
notes: gC1q (C1q-like) domain of human otolin-1, UniProt A6NHN0, natural SNP variant E470A (rs3921595); also called E470A variant; natural variant hOtolC1q E470A; source: 0.1% NP40 substitute added to the cell suspension
B3: C1q-like domain of otolin-1 from zebrafish (domain or fragment)
chain: not shown
notes: gC1q (C1q-like) domain of zebrafish otolin-1, UniProt A5PN28; printed monomer MW 17.1 kDa; Subcloned in pQE-80 L; also called dOtolC1q; native dOtolC1q

Target: the molecule itself
Assay: AUC; sedimentation velocity, c(s) analysis in SEDFIT; 10 mM CaCl2; 10 mM HEPES pH 7.0, 500 mM NaCl, 5% glycerol; 20 °C, 50,000 rpm; protein about 0.1, 0.25 and 0.5 mg/ml; self-association of the gC1q domain into trimers

Row | Protein | stoichiometry N
1 | B1 | 3
2 | B2 | 3
3 | B3 | 2 and 3
